# Substitutions are numbered along the chain they refer to. Numbers in names are those of the source.
# T1: TNFR1 (Homo sapiens, UniProt P19438)
# T1 chain: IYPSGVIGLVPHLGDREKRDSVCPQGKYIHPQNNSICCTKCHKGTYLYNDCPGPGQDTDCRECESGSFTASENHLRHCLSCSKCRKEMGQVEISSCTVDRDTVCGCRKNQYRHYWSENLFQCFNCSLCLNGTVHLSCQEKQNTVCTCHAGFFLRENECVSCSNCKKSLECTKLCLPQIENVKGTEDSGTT
# B1: L38V (designed binder)
# chain: MTLQELLREEALRRAEAEAFRYALELLAEKFPEQKEYVLDLAEEIESQIRSLSGVDVEDVRKFLDKEWAWVKELLAEHPAELAEVEAARAARLAELRAEVEAKVAA
# B2: A88N (designed binder)
# chain: B1 chain with V38L, A88N
# B3: Q4L (designed binder)
# chain: B1 chain with Q4L, V38L
# B4: E29G (designed binder)
# chain: B1 chain with E29G, V38L
# B5: R61P (designed binder)
# chain: B1 chain with V38L, R61P
# B6: E43G (designed binder)
# chain: B1 chain with V38L, E43G
# B7: S47A (designed binder)
# chain: B1 chain with V38L, S47A
# B8: L27W (designed binder)
# chain: B1 chain with L27W, V38L
# B9: L38K (designed binder)
# chain: B1 chain with V38K
# B10: E95C (designed binder)
# chain: B1 chain with V38L, E95C
# B11: D65V (designed binder)
# chain: B1 chain with V38L, D65V
# B12: S53P (designed binder)
# chain: B1 chain with V38L, S53P
# B13: S47P (designed binder)
# chain: B1 chain with V38L, S47P
# B14: A23P (designed binder)
# chain: B1 chain with A23P, V38L
# B15: E73N (designed binder)
# chain: B1 chain with V38L, E73N
# B16: M1S (designed binder)
# chain: B1 chain with M1S, V38L
# B17: A87P (designed binder)
# chain: B1 chain with V38L, A87P
# B18: A90P (designed binder)
# chain: B1 chain with V38L, A90P
# B19: L38I (designed binder)
# chain: B1 chain with V38I
# B20: L27A (designed binder)
# chain: B1 chain with L27A, V38L
# B21: I49F (designed binder)
# chain: B1 chain with V38L, I49F
# B22: L75N (designed binder)
# chain: B1 chain with V38L, L75N
# B23: A69Q (designed binder)
# chain: B1 chain with V38L, A69Q
# B24: Q4P (designed binder)
# chain: B1 chain with Q4P, V38L
# B25: E36W (designed binder)
# chain: B1 chain with E36W, V38L
# B26: L24W (designed binder)
# chain: B1 chain with L24W, V38L
# B27: L82A (designed binder)
# chain: B1 chain with V38L, L82A
# B28: L82W (designed binder)
# chain: B1 chain with V38L, L82W
# B29: I49K (designed binder)
# chain: B1 chain with V38L, I49K
# B30: K103D (designed binder)
# chain: B1 chain with V38L, K103D
# B31: E29W (designed binder)
# chain: B1 chain with E29W, V38L
# B32: E46A (designed binder)
# chain: B1 chain with V38L, E46A
# B33: E73V (designed binder)
# chain: B1 chain with V38L, E73V
# B34: E25D (designed binder)
# chain: B1 chain with E25D, V38L
# B35: R8M (designed binder)
# chain: B1 chain with R8M, V38L
# B36: D65Q (designed binder)
# chain: B1 chain with V38L, D65Q
# B37: D56Q (designed binder)
# chain: B1 chain with V38L, D56Q
# B38: E81F (designed binder)
# chain: B1 chain with V38L, E81F
# B39: V55G (designed binder)
# chain: B1 chain with V38L, V55G
# B40: E73Y (designed binder)
# chain: B1 chain with V38L, E73Y
# B41: E44K (designed binder)
# chain: B1 chain with V38L, E44K
# B42: A69T (designed binder)
# chain: B1 chain with V38L, A69T
# B43: S47H (designed binder)
# chain: B1 chain with V38L, S47H
# B44: L7H (designed binder)
# chain: B1 chain with L7H, V38L
# B45: L64H (designed binder)
# chain: B1 chain with V38L, L64H
# B46: E43R (designed binder)
# chain: B1 chain with V38L, E43R
# B47: V100S (designed binder)
# chain: B1 chain with V38L, V100S
# B48: R89H (designed binder)
# chain: B1 chain with V38L, R89H
# B49: K72M (designed binder)
# chain: B1 chain with V38L, K72M
# B50: E36H (designed binder)
# chain: B1 chain with E36H, V38L
# B51: F31D (designed binder)
# chain: B1 chain with F31D, V38L
# B52: S47V (designed binder)
# chain: B1 chain with V38L, S47V
# B53: F20G (designed binder)
# chain: B1 chain with F20G, V38L
# B54: R97Y (designed binder)
# chain: B1 chain with V38L, R97Y
# B55: I49M (designed binder)
# chain: B1 chain with V38L, I49M
# B56: S53L (designed binder)
# chain: B1 chain with V38L, S53L
# B57: E67Q (designed binder)
# chain: B1 chain with V38L, E67Q
# B58: Y37P (designed binder)
# chain: B1 chain with Y37P, V38L
# B59: A15L (designed binder)
# chain: B1 chain with A15L, V38L
# Molecular target: T1, TNFR1
# Test: yeast display SC50
row,apparent Kd (screen),Binder
1,0.172 nM,B1
2,0.718 nM,B2
3,0.446 nM,B3
4,0.49 nM,B4
5,26.9 nM,B5
6,0.79 nM,B6
7,0.49 nM,B7
8,0.956 nM,B8
9,4.39 nM,B9
10,0.49 nM,B10
11,0.956 nM,B11
12,13.8 nM,B12
13,3.3 nM,B13
14,0.718 nM,B14
15,1.86 nM,B15
16,0.539 nM,B16
17,0.956 nM,B17
18,1.4 nM,B18
19,0.405 nM,B19
20,0.593 nM,B20

row,apparent Kd (screen),Binder
1,0.539 nM,B21
2,0.593 nM,B22
3,0.653 nM,B23
4,3.3 nM,B24
5,0.539 nM,B25
6,4.83 nM,B26
7,0.869 nM,B27
8,0.956 nM,B28
9,7.78 nM,B29
10,0.718 nM,B30
11,0.653 nM,B31
12,0.49 nM,B32
13,1.05 nM,B33
14,1.27 nM,B34
15,0.49 nM,B35
16,0.79 nM,B36
17,1.4 nM,B37
18,0.718 nM,B38
19,0.539 nM,B39
20,0.539 nM,B40

row,apparent Kd (screen),Binder
1,0.956 nM,B41
2,0.718 nM,B42
3,0.539 nM,B43
4,7.07 nM,B44
5,0.956 nM,B45
6,0.593 nM,B46
7,0.49 nM,B47
8,0.539 nM,B48
9,0.49 nM,B49
10,0.49 nM,B50
11,2.25 nM,B51
12,0.446 nM,B52
13,0.869 nM,B53
14,0.49 nM,B54
15,0.869 nM,B55
16,2.25 nM,B56
17,11.4 nM,B57
18,18.3 nM,B58
19,0.368 nM,B59
